Results from patent US5877275A, “Controlling cellular immune/inflammatory responses with β2 integrins” (The General Hospital Corporation, priority 1995, dated 1999).

Target: iC3b (Homo sapiens, UniProt P01024)
Test: Binding of soluble heterodimer / wild-type receptor to iC3b-sepharose (elution, SDS-PAGE, autoradiography)
Conditions: detergent soluble fraction of 125I-surface-labelled neutrophils, immunoprecipitated with 44a mAb from eluate
Description: CD11b^1089 /CD18^699 was next tested for its ability to bind iC3b (the receptor bound by wild-type CD11b/CD18). Briefly, COS cells were transfected CD11b^1089 and CD18^699 cDNA as described above. Cells were labeled with ^35 S-methionine as described by Dana et al., J. Clin. Invest. 79:1010 (1987). Supernatants from both co-transfected COS cells (7×10^6 cells) and mock-transfected COS cells (7×10^6 cells) were concentrated to one ml using collodion bags (10,000 MW cut off). 100 μl of the concentrated supernatant were used for immunoprecipitation, and the rest of the supernatant was incubated with C3b-sepharose or iC3b-sepharose. C3b-sepharose and iC3b-sepharose was washed, eluted with 0.4 M NaCl and the eluted proteins were analyzed by SDS-PAGE and autoradiography. Binding of wild-type, membrane-bound CD11b/CD18 to iC3b-sepharose or C3b-sepharose was performed as described by Arnaout et al., (In Methods in Enzymology, DiSabato, Ed., Acad. Press Inc., Fla., 1987) using the detergent soluble fraction from 1×10^8 125 I-surface-labelled neutrophils.
FIG. 3 illustrates the results of SDS-PAGE analysis of neutrophil-derived ^125 I-surface-labeled glycoproteins eluted from C3b-sepharose and iC3b-sepharose. Eluants from C3b-sepharose (lane a) contained complement receptor type 1 (250kD) and the C3-binding regulatory protein gp45/70 (45-70 kD). […]

Sequence of iC3b (P01024 23-667 limits assumed): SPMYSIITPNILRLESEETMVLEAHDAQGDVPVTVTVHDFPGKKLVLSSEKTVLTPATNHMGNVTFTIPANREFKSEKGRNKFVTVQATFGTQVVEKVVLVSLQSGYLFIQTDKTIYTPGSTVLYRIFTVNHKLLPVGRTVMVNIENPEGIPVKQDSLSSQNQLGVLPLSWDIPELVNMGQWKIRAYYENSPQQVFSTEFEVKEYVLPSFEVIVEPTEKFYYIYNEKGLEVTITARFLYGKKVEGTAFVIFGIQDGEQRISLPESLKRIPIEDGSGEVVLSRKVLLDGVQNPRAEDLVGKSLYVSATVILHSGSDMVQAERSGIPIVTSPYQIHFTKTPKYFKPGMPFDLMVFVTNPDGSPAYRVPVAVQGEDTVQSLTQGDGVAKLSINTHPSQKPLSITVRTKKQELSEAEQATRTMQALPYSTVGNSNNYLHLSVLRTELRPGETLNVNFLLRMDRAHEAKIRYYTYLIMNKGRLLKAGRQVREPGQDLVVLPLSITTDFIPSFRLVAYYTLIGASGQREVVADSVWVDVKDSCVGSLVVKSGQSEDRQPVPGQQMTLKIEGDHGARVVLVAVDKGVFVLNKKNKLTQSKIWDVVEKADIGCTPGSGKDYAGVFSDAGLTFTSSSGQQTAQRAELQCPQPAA
Sequence of iC3b (P01024 749-954 limits assumed): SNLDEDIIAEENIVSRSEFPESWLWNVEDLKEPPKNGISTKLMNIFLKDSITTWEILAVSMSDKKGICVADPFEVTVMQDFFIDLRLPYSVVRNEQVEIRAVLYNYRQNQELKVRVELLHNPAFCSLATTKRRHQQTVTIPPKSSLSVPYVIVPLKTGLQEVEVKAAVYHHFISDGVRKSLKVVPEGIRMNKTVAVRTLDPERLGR
Sequence of iC3b (P01024 955-1303 limits assumed): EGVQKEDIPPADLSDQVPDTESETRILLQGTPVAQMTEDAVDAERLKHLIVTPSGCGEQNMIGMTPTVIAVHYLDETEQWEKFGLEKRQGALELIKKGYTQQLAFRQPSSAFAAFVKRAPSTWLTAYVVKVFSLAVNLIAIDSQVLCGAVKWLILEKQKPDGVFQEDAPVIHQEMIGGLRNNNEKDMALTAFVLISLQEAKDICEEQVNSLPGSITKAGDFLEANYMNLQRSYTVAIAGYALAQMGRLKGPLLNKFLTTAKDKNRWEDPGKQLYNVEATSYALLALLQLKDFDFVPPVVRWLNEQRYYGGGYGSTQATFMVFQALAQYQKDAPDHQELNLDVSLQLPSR
Sequence of iC3b (P01024 1321-1663 limits assumed): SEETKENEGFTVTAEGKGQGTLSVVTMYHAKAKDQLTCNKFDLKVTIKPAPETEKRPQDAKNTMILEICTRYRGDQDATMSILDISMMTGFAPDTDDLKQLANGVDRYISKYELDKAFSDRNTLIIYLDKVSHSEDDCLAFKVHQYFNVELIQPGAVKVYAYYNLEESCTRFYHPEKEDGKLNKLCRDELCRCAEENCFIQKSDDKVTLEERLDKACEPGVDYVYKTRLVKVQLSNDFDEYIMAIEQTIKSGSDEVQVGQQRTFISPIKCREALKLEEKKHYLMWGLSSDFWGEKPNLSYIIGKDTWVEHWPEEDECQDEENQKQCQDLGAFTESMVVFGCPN

Substance: CD11b/CD18: wild-type, membrane-bound CD11b/CD18 from surface-labelled neutrophils
- binding to iC3b-sepharose: eluted from iC3b-sepharose
